From patent publication US20230125550A1 (ARCELLX, published 2023) come the findings set out here.

B1: SEQ ID NO 678 (designed binder)
chain: MGSWIEFEVRLDAIWDRLFALGGSEAELAAFEKEIAAFESELQAYKGKGNPEVEYLRDEAADIRQSLQAYRHN
B2: SEQ ID NO 677 (designed binder)
chain: B1 chain with I5G, E8W, V9A, D12E, D16I, F19D, Y55W, D58E, Q65R
B3: SEQ ID NO 682 (designed binder)
chain: MGSWVEFRDRLDAIETRLWALGGSEAELAAFEKEIAAFESELQAYKGKGNPEVEWLRYEAAEIRMVLQAYRHN
B4: SEQ ID NO 733 (designed binder)
chain: B1 chain with I5F, E8W, V9D, W15E, F19Y, Y55E, D62W, Q65G, S66T
B5: SEQ ID NO 706 (designed binder)
chain: B3 chain with V5Y, R8A, D12W, T16D, W55F, E59Y, E62D, M65W
B6: SEQ ID NO 695 (designed binder)
chain: B1 chain with I5W, V9D, W15E, D16Y, Y55F, D58E, D62F, Q65I, S66F
B7: SEQ ID NO 728 (designed binder)
chain: MGSWYEFEERLEAIEDRLWALGGSEAELAAFEKEIAAFESELQAYKGKGNPEVEWLREQAAFIRTMLQAYRHN
B8: SEQ ID NO 729 (designed binder)
chain: MGSWFEFEWRLEAIFDRLYALGGSEAELAAFEKEIAAFESELQAYKGKGNPEVEVLRAEAAEIRLRLQAYRHN
B9: SEQ ID NO 694 (designed binder)
chain: B1 chain with I5W, E8L, V9D, W15E, D16M, D58E, D62L, Q65N, S66M
B10: SEQ ID NO 683 (designed binder)
chain: B3 chain with V5M, R8I, T16H, W55F, Y58E, V66Y
B11: SEQ ID NO 727 (designed binder)
chain: B7 chain with Y5V, E9N, D16N, Q59D, F62Q, T65M
B12: SEQ ID NO 686 (designed binder)
chain: B3 chain with V5Y, R8Y, T16W, Y58D, E62Q, M65D, V66F
B13: SEQ ID NO 687 (designed binder)
chain: B3 chain with R8Y, T16H, W19D, Y58D, E62F, M65D, V66M
B14: SEQ ID NO 688 (designed binder)
chain: MGSWFEFVDRLTAIQVRLWALGGSEAELAAFEKEIAAFESELQAYKGKGNPEVEYLREEAALIRYSLQAYRHN
B15: SEQ ID NO 719 (designed binder)
chain: B14 chain with F5W, V8H, T12E, Q15E, V16D, E58I, L62D, Y65R, S66Q
B16: SEQ ID NO 732 (designed binder)
chain: B1 chain with E8W, V9D, D12E, W15E, F19W, Y55E, D62W, Q65D
B17: SEQ ID NO 734 (designed binder)
chain: B1 chain with I5E, E8T, V9D, D12W, W15E, F19Y, Y55W, D62F, Q65K
B18: SEQ ID NO 714 (designed binder)
chain: B3 chain with R8E, D9S, D12A, T16H, W55E, Y58E, E59Y, M65D, V66W
B19: SEQ ID NO 679 (designed binder)
chain: B1 chain with I5T, E8D, V9R, Y55W, D58E, Q65D, S66Y
B20: SEQ ID NO 684 (designed binder)
chain: B3 chain with V5T, R8V, D9W, T16W, W19E, W55F, Y58E, M65D, V66W
B21: SEQ ID NO 726 (designed binder)
chain: B7 chain with E9W, E12D, E15Y, W19G, Q59D, F62E, T65A, M66L
B22: SEQ ID NO 710 (designed binder)
chain: B14 chain with V8E, T12D, Q15W, V16D, Y55F, E58M, E59D, L62M, S66I
B23: SEQ ID NO 713 (designed binder)
chain: B3 chain with V5Y, R8W, D12E, T16D, W55F, E59S, M65Y, V66Q
B24: SEQ ID NO 718 (designed binder)
chain: B1 chain with I5Y, E8Y, V9N, W15E, F19W, D58Q, Q65G, S66Q
B25: SEQ ID NO 709 (designed binder)
chain: B1 chain with V9S, D12W, W15E, F19L, Y55F, D58L, Q65E, S66D
B26: SEQ ID NO 738 (designed binder)
chain: B8 chain with W9I, F15E, Y19F, V55F, A58D, L65Q, R66V
B27: SEQ ID NO 707 (designed binder)
chain: B7 chain with E12Y, W19Y, W55F, E58Q, Q59E, F62D, T65L
B28: SEQ ID NO 725 (designed binder)
chain: B7 chain with E9H, E12D, E15Y, Q59E, F62W, T65L, M66W
B29: SEQ ID NO 739 (designed binder)
chain: B3 chain with V5Y, R8Y, D9Q, D12E, T16D, W19F, Y58D, M65V
B30: SEQ ID NO 721 (designed binder)
chain: B7 chain with E12W, D16E, W19Y, W55Y, E58Y, Q59E, F62W, T65D, M66F
B31: SEQ ID NO 717 (designed binder)
chain: B8 chain with F5Y, E12M, F15E, Y19W, V55Y, A58H, L65D, R66V
B32: SEQ ID NO 722 (designed binder)
chain: B7 chain with E9N, D16E, W55M, Q59E, T65D, M66W
B33: SEQ ID NO 690 (designed binder)
chain: B1 chain with I5Y, E8M, W15E, D16E, Y55F, D58E, D62S, Q65Y, S66H
B34: SEQ ID NO 723 (designed binder)
chain: B7 chain with E9Y, W55Y, Q59E, F62W, T65V, M66W
B35: SEQ ID NO 711 (designed binder)
chain: B3 chain with V5E, R8E, D12W, T16D, W55I, E59D, E62Y, M65E, V66I
B36: SEQ ID NO 693 (designed binder)
chain: B1 chain with I5V, V9Y, W15T, D16E, F19L, Y55I, D58E, D62F, S66W
B37: SEQ ID NO 689 (designed binder)
chain: B14 chain with V8L, T12D, Q15E, V16E, Y55W, L62V, Y65D
B38: SEQ ID NO 708 (designed binder)
chain: B1 chain with I5T, V9W, D12Y, W15E, F19M, Y55F, S66Y
B39: SEQ ID NO 705 (designed binder)
chain: B3 chain with R8W, D12W, T16D, W55H, Y58H, E59Y, E62D, M65V, V66W
B40: SEQ ID NO 740 (designed binder)
chain: B8 chain with F5I, W9D, F15E, Y19F, V55W, A58Q, R66M
B41: SEQ ID NO 696 (designed binder)
chain: MGSWWEFESRLDAIFMRLTALGGSEAELAAFEKEIAAFESELQAYKGKGNPEVEDLREDAAFIREFLQAYRHN
B42: SEQ ID NO 720 (designed binder)
chain: B14 chain with F5Y, V8W, T12E, Q15E, V16E, E58L, L62D, Y65R, S66I
B43: SEQ ID NO 680 (designed binder)
chain: B1 chain with I5T, E8D, V9M, Y55E, D58E, D62T, Q65G, S66V
B44: SEQ ID NO 715 (designed binder)
chain: B7 chain with Y5W, E9H, E12F, W55F, E58D, Q59Y, F62E, T65D, M66Y
B45: SEQ ID NO 685 (designed binder)
chain: B3 chain with R8Y, D12Y, T16V, W19L, W55F, Y58Q, M65D, V66W
B46: SEQ ID NO 735 (designed binder)
chain: B7 chain with Y5V, E8V, E9D, W19F, W55F, E58D, F62Y, T65F
B47: SEQ ID NO 681 (designed binder)
chain: B3 chain with V5E, R8H, D12M, E62D, M65D, V66Y
B48: SEQ ID NO 716 (designed binder)
chain: B3 chain with V5Y, R8D, D9S, D12M, T16D, W55Y, Y58Q, V66I
B49: SEQ ID NO 737 (designed binder)
chain: B7 chain with Y5W, E9M, W19F, W55S, E58W, Q59E, T65D, M66I
B50: SEQ ID NO 724 (designed binder)
chain: B7 chain with E9N, E12G, E15G, E58D, Q59E, F62Y, T65A, M66V

Substitutions are numbered along the chain they refer to.

The test addresses T1, recombinant human CD123-Fc (human, UniProt P26951 19-305).
T1 construct: not shown: Fc part of CD123-Fc
T1 sequence: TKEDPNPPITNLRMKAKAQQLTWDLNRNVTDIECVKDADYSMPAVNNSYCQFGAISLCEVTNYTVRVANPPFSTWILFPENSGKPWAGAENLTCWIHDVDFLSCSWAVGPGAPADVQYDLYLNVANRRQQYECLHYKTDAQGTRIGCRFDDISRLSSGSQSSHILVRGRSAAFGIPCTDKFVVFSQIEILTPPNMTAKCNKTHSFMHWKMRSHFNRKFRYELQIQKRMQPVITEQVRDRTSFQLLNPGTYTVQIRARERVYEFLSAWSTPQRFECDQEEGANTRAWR
Briefly: phage ELISA, A450 target/A450 IgG1-Fc. In a few lines: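 Individual phagemid colonies picked from panning output were rescued in 96-well format using VCSM13 helper phage. Plates received 1.3 microg/ml goat anti-human IgG1-Fc antibody, followed by 5 nM recombinant human target or IgG1-Fc, and then 50 microl of phage diluted 5× in ELISA blocking buffer. An HRP-conjugated anti-M13 antibody detected binding at 450 nm. For each clone, the ELISA ratio is the absorbance with target divided by that with IgG1-Fc, averaged over every screened well containing the clone.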
Background: An ELISA detects its analyte on a solid surface through an enzyme-linked reagent.
Take B1: the ELISA_avg came to 4.2 ratio.

For B2, the ELISA_avg was 15 ratio.

In the case of B3, the ELISA_avg came out at 4.2 ratio.

In the case of B4, the ELISA_avg came out at 4.9 ratio.

Regarding B5, the ELISA_avg amounted to 4 ratio.

Regarding B6, the ELISA_avg was 4.9 ratio.

Consider B7, for which the ELISA_avg amounted to 6 ratio.

Regarding B8, the ELISA_avg is 6.9 ratio.

B9: the ELISA_avg turned out to be 9 ratio.

In the case of B10, the ELISA_avg was determined as 4.3 ratio.

With B11, the ELISA_avg worked out at 6.2 ratio.

As for B12, the ELISA_avg came to 6.2 ratio.

Turning to B13, the ELISA_avg was 3.4 ratio.

As for B14, the ELISA_avg amounted to 5.1 ratio.

On to B15, for which the ELISA_avg came to 6.4 ratio.

In the case of B16, the ELISA_avg was found to be 4.5 ratio.

Regarding B17, the ELISA_avg is 8.9 ratio.

Regarding B18, the ELISA_avg came out at 3.7 ratio.

For the molecule B19, the ELISA_avg was 9.2 ratio.

For B20, the ELISA_avg was found to be 4.2 ratio.

Turning to B21, the ELISA_avg came out at 6 ratio.

Take B22: the ELISA_avg worked out at 5.1 ratio.

For B23, the ELISA_avg is 4.2 ratio.

As for B24, the ELISA_avg amounted to 11.3 ratio.

As for B25, the ELISA_avg worked out at 8.7 ratio.

In the case of B26, the ELISA_avg amounted to 3 ratio.

In the case of B27, the ELISA_avg amounted to 11.5 ratio.

Regarding B28, the ELISA_avg turned out to be 6.3 ratio.

In the case of B29, the ELISA_avg is 3 ratio.

For B30, the ELISA_avg came to 5.4 ratio.

As to B31, the ELISA_avg was 3.4 ratio.

On to B32, for which the ELISA_avg stood at 6.1 ratio.

As to B33, the ELISA_avg is 4.1 ratio.

Consider B34, for which the ELISA_avg worked out at 6.2 ratio.

Take B35: the ELISA_avg is 4.1 ratio.

In the case of B36, the ELISA_avg is 3.9 ratio.

For the molecule B37, the ELISA_avg was 12.2 ratio.

In the case of B38, the ELISA_avg worked out at 4.2 ratio.

On to B39, for which the ELISA_avg is 4.5 ratio.

Turning to B40, the ELISA_avg turned out to be 21.8 ratio.

With B41, the ELISA_avg stood at 3.7 ratio.

Regarding B42, the ELISA_avg turned out to be 4.6 ratio.

For the molecule B43, the ELISA_avg came out at 3.1 ratio.

As to B44, the ELISA_avg came to 7.6 ratio.

For B45, the ELISA_avg amounted to 5.8 ratio.

In the case of B46, the ELISA_avg is 4.9 ratio.

On to B47, for which the ELISA_avg is 4.3 ratio.

With B48, the ELISA_avg is 3.2 ratio.

Take B49: the ELISA_avg was 4 ratio.

For the molecule B50, the ELISA_avg is 4.8 ratio.
